Assay [1] has as its target T1, Recombinant human Cripto-1 (rhCripto-1-1) (human, UniProt P13385 31-172, limits assumed).
T1 construct: Bought protein
T1 sequence (looked up): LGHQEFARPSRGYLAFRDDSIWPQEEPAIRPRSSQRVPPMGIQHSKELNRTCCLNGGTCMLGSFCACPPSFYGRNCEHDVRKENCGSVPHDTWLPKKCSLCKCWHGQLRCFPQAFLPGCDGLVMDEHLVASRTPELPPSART
Put plainly: SPR, average of two formats (Nodal to Cripto and Cripto to Nodal). (In SPR one partner is held on a chip, and binding of the other changes the refractive index at the surface.)

Assay [2] addresses T1, Recombinant human Cripto-1 …. Nature of the assay: SPR; the curves are labelled hrCripto 4nM, 8nM, 16nM and 32nM, so Cripto-1 is the injected molecule (the legend paragraph 37 words panel A as Nodal to Cripto).
Assay [3] has the same target. Put plainly: SPR; the curves are labelled Nodal 10nM, 25nM, 50nM and 100nM, so Nodal is the injected molecule (the legend paragraph 37 words panel B as Cripto to Nodal).

B1: Recombinant human Nodal protein (rhNodal, E. coli derived His238-Leu347 with an N-terminal Met) (ligand)
chain: MHHLPDRSQLCRKVKFQVDFNLIGWGSWIIYPKQYNAYRCEGECPNPVGEEFHPTNHAYIQSLLKRYQPHRVPSTCCAPVKTKPLSMLYVDNGRVLLDHHKDMIVEECGCL
notes: range 238-347; also called full length Nodal; rNodal
As usually defined, the Kd is the free concentration of one partner at which half of the binding sites on the other are occupied at equilibrium, for simple one-to-one binding. Turning to B1, the dissociation constant Kd in assay [1] was ~4 nM; in assay [2] it was 3.7 nM; in assay [3], 5.8 nM.

Values taken from patent US20180319875A1 (ANN AND ROBERT H LURIE CHILDREN S HOSPITAL OF CHICAGO, published 2018).
